Experimental data: PMC7997955 (2021)

Molecular target: Full-length human AURKA^T288V (human, UniProt O14965 1-403, T288V)
Assay: FP; competition with FITC-Tpx2 1-43

Full-length human AURKA^T288V, sequence (O14965 other isoform, or with tags, fused parts or gaps T288V | T288V): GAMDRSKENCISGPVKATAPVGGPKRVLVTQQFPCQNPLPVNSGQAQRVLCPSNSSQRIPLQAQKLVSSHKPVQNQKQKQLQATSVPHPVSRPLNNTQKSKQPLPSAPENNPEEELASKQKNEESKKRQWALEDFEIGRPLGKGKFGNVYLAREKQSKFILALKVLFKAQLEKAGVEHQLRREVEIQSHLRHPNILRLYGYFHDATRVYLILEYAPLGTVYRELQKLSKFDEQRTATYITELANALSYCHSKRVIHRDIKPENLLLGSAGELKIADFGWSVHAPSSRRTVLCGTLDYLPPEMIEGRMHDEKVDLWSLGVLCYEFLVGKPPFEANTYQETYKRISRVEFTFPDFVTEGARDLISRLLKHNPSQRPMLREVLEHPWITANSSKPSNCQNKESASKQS

- IC50: 680 nM
B1: pBora^18–120 (domain or fragment)
chain: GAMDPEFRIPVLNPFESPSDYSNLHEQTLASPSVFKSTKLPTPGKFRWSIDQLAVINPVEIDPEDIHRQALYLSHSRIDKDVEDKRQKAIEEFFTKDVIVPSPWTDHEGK
modifications: phosphorylated (kinase and sites not stated for the fluorescence polarisation assay)
